From patent US11834472B2, “Anti-IL-22 antibodies, antibody fragments, their immunoconjugates and uses thereof” (BioAtla, Inc., priority 2018, dated 2023) come the findings set out here.

A short description of series [1]: Thermostability. It is filed as physicochemical.
Series [2] deals with imiquimod (IMQ) induced psoriasis. In kind it is in vivo. As to conditions: for reduction in body weight of the treated mice: days 0-7, in comparison to dexamethasone / PBS (FIG. 13). An excerpt: Two anti-IL-22 antibodies of the present invention, CPS02 and CPS09, were used for the treatment of imiquimod (IMQ) induced psoriasis in mice (FIG. 12). The mice were male BALB/c mice, which were an albino, laboratory-bred strain of the house mouse. A total of 70 mice, at a body weight of 18-20 g, were acclimated for 7 days before induction of psoriasis.
The 70 mice were randomized into 7 groups (10 mice in each group). One group (group 1) was used as a negative control to which no imiquimod was administered to the mice, which was instead replaced with Vaseline. […] The other 6 groups (groups 2-7) were dosed topically with imiquimod at a dosage of 82.5 mg/mouse (5% cream) once daily (qd) for 8 consecutive days from day 0 to day 7 (20 mg for the left ear, 62.5 mg for the shaved back) to induce psoriasis. The back skin was shaved to expose an area of 2×3 cm^2. For the Vaseline control group, the Vaseline was also applied at 82.5 mg/mouse once daily (qd) for 8 consecutive days (20 mg for left ear, 62.5 mg for the shaved back) from day 0 to day 7.
Group 2 was a group of psoriasis-induced mice that were untreated to serve as a control group. The treatment period completely overlapped with the imiquimod application period (day 0 to day 7). For group 2, the mice received both imiquimod and […] on each day of the 8-day period (day 0 to day 7). For the groups that received intravenous (I.V.) injection, the imiquimod was applied within one hour after the I.V. injection on days 0 and 3.
Group 3 was treated with the steroid dexamethasone, which is a current therapeutic treatment used for psoriasis. The dexamethasone was topically applied twice a day (BID) for 8 days. Group 4 was treated with phosphate-buffered saline (PBS), which served as a negative control. Group 5 was treated with an isotype control antibody that also served as a negative control. Groups 6-7 were treated with the anti-IL22 antibodies CPS02 (A) and CPS09 (B), respectively. The treatments for Groups 4-7 were administered by a single intravenous (I.V.) injection on each of days 0 and 3. 3 mice in group 6 died on day 0 and 2 died on day 1. On day 3, the I.V. injection dosage for this group was decreased to 10 mg/kg.
During the 8 day treatment period, the ear thickness was measured on days 0, 3, 5 and 7. The body weight and various skin scores were recorded daily. Pictures of the psoriasis sites were taken on days 0, 3, 5 and 7. On days 1 and 4, about 60 μl blood was collected via retro-orbital bleeding over 24 hours and placed in BD Microtainer® tubes coated with dipotassium ethylenediaminetetraacetic acid (K2EDTA). Plasma was then collected (to get at least 20 μl plasma) and stored at −80° C.
Skin scores for erythema, scales and thickness were measured daily according to an established grading system. The erythema, scales and thickness were scored independently on a scale of from 0 to 4: 0 means none, 1 means slight, 2 means moderate, 3 means marked, and 4 means very marked. The cumulative (total) skin score was also calculated.
The effects of the treatments were analyzed statistically using two-way analysis of variance (ANOVA, Bonferroni post-tests) or one-way ANOVA analysis. For comparisons between the treatment groups and the control group, the p value is denoted in FIGS. 13-18 as (*) if less than 0.05, (**) if less than 0.01, or (***) if less than 0.001.

Series [3] has as its target T1, mouse IL-22 (mIL-22) (Mus musculus, UniProt Q9JJY9).
T1 sequence (Q9JJY9 34-179): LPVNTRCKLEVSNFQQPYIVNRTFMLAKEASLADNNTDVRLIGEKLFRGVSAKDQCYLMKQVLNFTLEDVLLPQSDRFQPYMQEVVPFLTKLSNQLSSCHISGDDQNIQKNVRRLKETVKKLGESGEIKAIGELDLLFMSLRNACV
Briefly: Inhibition of mIL-22 induced Stat3 phosphorylation in HepG2 cells. Conditions: mAb 6.7 nM. It is filed as cell-based. How it is done:
One of the immediate functions of IL-22 is inducing phosphorylation of Stat3, a protein in the signaling pathway of IL-22. The 10 antibodies of Table 1 were tested in a cell-based assay for blocking IL-22-dependent phosphorylation of Stat3 through human or mouse IL-22 in HepG2 cells. Antibody hum10 and mutant CPE-LC-E049K were used as controls. Four concentrations of each of the antibodies were used: 0.11 μg/mL, 0.33 μg/mL, 1 μg/mL, and 3 μg/mL.
30,000 human HepG2 cells were seeded in 96 well plates and serum starved overnight. Three-fold dilutions of anti-IL-22 antibodies and control hum10 antibody at concentrations of 0.11 μg/mL, 0.33 μg/mL, 1 μg/mL, and 3 μg/mL were incubated with 200 ng/ml of hIL-22 or mIL-22 at 37° C. for one hour then added to the serum starved human HepG2 cells. The HepG2 cells were incubated with the antibody-IL-22 mixture at 37° C. for 20 minutes. After incubation, HepG2 cells were washed with PBS and lysed. Half of the cell lysate was used to determine the level of phosphorylated Stat3 using Cell Signaling kit #7300 following the vendor's protocol and the other half of the cell lysate was used to determine the level of total Stat3 by Western blot analysis using a Santa Cruz rabbit polyclonal antibody (Sc-7179) against human Stat3.

The nature of series [4]: Aggregate formation at 10 mg/mL in PBS. It is filed as physicochemical.
Series [5] is described as follows: Pharmacokinetics in NOD SCID mice, plasma concentration by solid phase ELISA. It is filed as in vivo, mouse. As to conditions: after a 10 mg/kg IV injection. How it is done: The pharmacokinetics of the mutant antibodies of Table 1 were analyzed in mice. The antibodies were injected into mice by IV injection at two doses 0.3 mg/kg and 10 mg/kg. The concentrations of the injected antibodies in the blood plasma were measured by solid phase ELISA.
Two anti-IL-22 antibodies CPS02 and CPS09 were tested in NOD SCID mice. The antibodies were injected via IV at two dosages: 0.3 mg/kg and 10 mg/kg. Three mice were used for each dose group. Blood samples were retrieved from the mice at 10 min, 1 h, 3 h 7 h, 24 h, 48 h, 96 h, 168 h, 240 h and 336 h after the IV injection. The concentrations of the injected antibodies in the blood samples were measured by solid phase ELISA.
Background: ELISA stands for enzyme-linked immunosorbent assay.

Series [6] has as its target T2, human IL-22 (Homo sapiens, UniProt Q9GZX6).
T2 sequence (Q9GZX6 34-179): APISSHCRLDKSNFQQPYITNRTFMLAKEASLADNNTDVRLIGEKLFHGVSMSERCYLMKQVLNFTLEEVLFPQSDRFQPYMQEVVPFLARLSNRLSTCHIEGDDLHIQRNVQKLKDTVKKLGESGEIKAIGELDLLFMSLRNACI
Briefly: SPR capture assay, affinity to human IL-22. In kind it is binding. As to conditions: human IL-22, SPR. How it is done: (§1) The affinity of the 10 antibodies of Table 1 was measured by Surface Plasma Resonance (SPR) using a capture assay in PBS buffer to generate binding curves at four different concentrations of each antibody (0.05, 0.1, 0.5, and 1.0 μg/ml). The Ka, Kd and KD values for the mutant antibodies were calculated from the curves for each of the antibodies.
(§2) The affinity of the 10 antibodies of Table 1 was measured by Surface Plasma Resonance (SPR) using a capture assay on a SPR-2 instrument (SierraSensiors, Hamburg, Germany). The antigens hIL-22 and mIL-22 were immobilized on chips. The running buffer for the assay contained 10 mM HEPES with a pH of 7.4, 500 mM NaCl, and 0.05% TWEEN® 20. […] The off-rate was measured for 6 minutes. Binding constants were calculated using the curve fitting software Analyzer2 (Sierra Sensors). Sensorgrams were analyzed with the instrument specific software and with BIAevaluation 4.1 software. The binding data were analyzed using the Langmuir 1:1 model (human IL-22) or a model for a heterogeneous ligand ([…]).
(§3) The antibodies were tested at four different concentrations of each antibody: 0.33 nM, 0.67 nM, 3.3 nM, 6.7 nM for hIL-22; 1, 2, […] for mIL-22. Antibody CPE-LC-E049K was used as a control.

The target of series [7] is T3, mouse IL-22 (Mus musculus, UniProt Q9JJY9).
T3 sequence (Q9JJY9 34-179): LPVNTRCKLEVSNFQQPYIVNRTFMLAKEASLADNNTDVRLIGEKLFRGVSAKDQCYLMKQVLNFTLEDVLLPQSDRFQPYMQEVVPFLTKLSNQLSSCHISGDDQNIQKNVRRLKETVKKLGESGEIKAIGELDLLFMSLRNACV
Briefly: SPR capture assay, affinity to mouse IL-22. In kind it is binding. Conditions: mouse IL-22, SPR. Here is the method:
as §1, §2, §3

Where two headings read alike, the source gives them in different places.

B1: CPS09: mutant anti-IL-22 antibody binding human and mouse IL-22; light chain LC-04, heavy chain HC-25 (antibody, V domains shown)
VH: QVQLVQSGAEVKKPGASVKVSCKASGYIFRSYWIHWIRQPPGKGLEWIGRIYPGTGRTYYNEKFKGRVTISADKSISTAYLQWSSLKASDTAMYYCARSYDYSVAYWGQGTLVTVSS
VL: AIQLTQSPSSLSASVGDRVTITCSASSSVSYMHWYLQKPGQSPQLLIYETRKLASGVPSRFSGSGSGTDFTFTISSLEAEDAATYYCQQWSSNPYITFGQGTKVEIKR
For the molecule B1, the “Thermostability (% remaining activity 60 min); of duplicate samples” value in series [1] was 102%. In addition, in series [2] (IMQ psoriasis mice), the “effect in treating psoriasis in the mouse model (summary)” value is listed as “especially effective in treating psoriasis” and the “reduction in body weight of the treated mice” value is “less reduction in body weight”. Further, the “reduction in body weight of the treated mice” value in series [2] (IMQ psoriasis mice, listed as CSP09) is listed as “reduction in body weight similar to the PBS buffer negative control”. The “side effect (summary)” value in series [2] (in comparison with the known treatment (dexamethasone)) is “only a minimal side effect”. Besides, the ear skin thickness entry in series [2] (vs negative controls (isotype matched antibody, PBS, vehicle) (FIG. 14)) was “less”. In series [2] (vs negative controls (isotype matched antibody, PBS, vehicle) (FIG. 15)), the skin erythema score result is given as “lower”. The skin scale score result in series [2] (vs negative controls (isotype matched antibody, PBS, vehicle) (FIG. 16)) is reported as “lower”. Moreover, the skin thickness entry in series [2] (vs negative controls (isotype matched antibody, PBS, vehicle) (FIG. 17)) is given as “lower”. Also, the “STAT3 Phosphorylation; mIL22 % inhibition” value in series [3] came to 63.12%. Further, in series [4], the “Aggregate formation at 10 mg/mL in PBS” value is reported as “no”. For the same molecule, the half-life in mice result in series [5] is “about 16 hours”. In series [6], this molecule gave a ka of 860000 M·s and a kd of 2.18e-05 s⁻¹. Further, in series [7], the ka was determined as 194000 M·s and the kd was found to be 0.000768 s⁻¹.

B2: CPS14 (antibody, V domains shown)
VH: QVQLVQSGAEVKKPGASVKVSCKASGYIFTSYWIHWIRQPPGKGLEWIGRIYPGTGRTYYNRKFKGRVTISADKSISTAYLQWSSLKASDTAMYYCARSYDYSVAYWGQGTLVTVSS
VL: AIQLTQSPSSLSASVGDRVTITCSASSSVSYMHWYLQKPGQSPQLLIYETRKLASGVPSRFSGSGSGTDFTFTISSLEAEDAATYYCQQWSSNPYITFGQGTKVEIKR
Consider B2, for which the ka in series [6] worked out at 1.13e+06 M·s; in series [7], 256000 M·s. Also, the kd came out at 3.55e-05 s⁻¹ in series [6] and 0.00123 s⁻¹ in series [7].

B3: CPS17: mutant anti-IL-22 antibody binding human and mouse IL-22; light chain LC-04, heavy chain HC-49 (antibody, V domains shown)
VH: QVQLVQSGAEVKKPGASVKVSCKASGYIFRSYWIHWIRQPPGKGLEWIGRIYPGTGNTYYNRKFKGRVTISADKSISTAYLQWSSLKASDTAMYYCARSYMYSVAYWGQGTLVTVSS
VL: AIQLTQSPSSLSASVGDRVTITCSASSSVSYMHWYLQKPGQSPQLLIYETRKLASGVPSRFSGSGSGTDFTFTISSLEAEDAATYYCQQWSSNPYITFGQGTKVEIKR
In series [6], B3 yielded a ka of 1.33e+06 M·s and a kd of 6.94e-05 s⁻¹. Moreover, in series [7], the ka came out at 252000 M·s and the kd turned out to be 0.00158 s⁻¹.

B4: LC-E049K: one of the mutant antibodies in the CPE library, used as a control (antibody, V domains shown)
VH: QVQLVQSGAEVKKPGASVKVSCKASGYIFTSYWIHWIRQPPGKGLEWIGRIYPGTGNTYYNEKFKGRVTISADKSISTAYLQWSSLKASDTAMYYCARSYDSSCAYWGQGTLVTVSS
VL: AIQLTQSPSSLSASVGDRVTITCSASSSVSYMHWYLQKPGQSPQLLIYKTSKLASGVPSRFSGSGSGTDFTFTISSLEAEDAATYYCQQWSSNPYITFGQGTKVEIKR
With B4, in series [6], the ka was determined as 381000 M·s and the kd turned out to be 5.93e-05 s⁻¹. Moreover, in series [7], the ka is 34100 M·s and the kd came to 0.00137 s⁻¹.

B5: CPS04: mutant anti-IL-22 antibody binding human and mouse IL-22; light chain LC-07, heavy chain HC-09 (antibody, V domains shown)
VH: QVQLVQSGAEVKKPGASVKVSCKASGYIFRSYWIHWIRQPPGKGLEWIGRIYPGTGNTYYNRKFKGRVTISADKSISTAYLQWSSLKASDTAMYYCARSYDSSVAYWGQGTLVTVSS
VL: AIQLTQSPSSLSASVGDRVTITCSASSSVSYMHWYLQKPGQSPQLLIYKTSKLLSGVPSRFSGSGSGTDFTFTISSLEAEDAATYYCQQWSSNPYITFGQGTKVEIKR
B5: the ka amounted to 1.28e+06 M·s in series [6] and 279000 M·s in series [7]. Further, the figures for the kd in series [6] and in series [7] were 3.74e-05 s⁻¹ and 0.00118 s⁻¹, respectively.
